Data reported in paper PMC3849134.
Read-outs that look alike come from different tables or passages of the source.

How the values were obtained:
Experiment in all cases: radioligand binding
[1] = target: self-assembling peptide AcN-(KLDL)3-CNH2
[2] = target: self-assembling peptide AcN-(KLDL)3-CNH2; remark: listed apart in the source
[3] = target: self-assembling peptide AcN-(KLDL)3-CNH2; remark: listed apart in the source

uptake ratio (concentration in gel / concentration in bath) [1]: 85.8
percent of loaded released (cumulative), day 3 [2]: 13 to 16%
percent of loaded released (cumulative), day 7 [2]: 25%
percent of loaded released (cumulative), day 14 [2]: 27%
percent of loaded released (cumulative), day 21 [2]: 32%
percent of loaded retained in the hydrogel, day 21 [2]: 68%
uptake ratio (concentration in gel / concentration in bath) [2]: 18.5
percent of loaded released (cumulative), day 21 [3]: 44%
percent of loaded retained in the hydrogel, day 21 [3]: 56%
Substance: ^125I-TGF-β1 (radiolabelled transforming growth factor β1) (ligand)
